Experimental data from paper PMC6555819, “Comprehensive study of nuclear receptor DNA binding provides a revised framework for understanding receptor specificity”.
Positions count from the first letter of the chain named.

B1: NRC3_random_hg19_360_o1 (dsDNA)
DNA 1: GCGCCTGCATAGCCATTCACAGACACTGCCAATACCGCGATTGACAGCGTAGAATGAAGG
DNA 2: CCTTCATTCTACGCTGTCAATCGCGGTATTGGCAGTGTCTGTGAATGGCTATGCAGGCGC
B2: NRC3_random_hg19_227_o1 (dsDNA)
DNA 1: GCGAAGGAAGGAAGGAAGGAAGGAAGGAAGGAAGGCGCGATTGACAGCGTAGAATGAAGG
DNA 2: CCTTCATTCTACGCTGTCAATCGCGCCTTCCTTCCTTCCTTCCTTCCTTCCTTCCTTCGC
B3: NRC3_random_hg19_91_o1 (dsDNA)
DNA 1: GCGACTCAGACACTGCTGGCACCCGACACTGCTCTCGCGATTGACAGCGTAGAATGAAGG
DNA 2: CCTTCATTCTACGCTGTCAATCGCGAGAGCAGTGTCGGGTGCCAGCAGTGTCTGAGTCGC
B4: NRC3_wobSeed85_DR3_A16T_o1 (dsDNA)
DNA 1: GCCGTCCAAGGTCAGTGAGGTCAGTGAATGCCGAGTGCGATTGACAGCGTAGAATGAAGG
DNA 2: CCTTCATTCTACGCTGTCAATCGCACTCGGCATTCACTGACCTCACTGACCTTGGACGGC
B5: NRC3_random_hg19_266_o1 (dsDNA)
DNA 1: GCAATGACAAGGAAGTGTGGAGGCAGAAAGTGCCAAGCGATTGACAGCGTAGAATGAAGG
DNA 2: CCTTCATTCTACGCTGTCAATCGCTTGGCACTTTCTGCCTCCACACTTCCTTGTCATTGC
B6: NRC3_wobSeed72_DR2_G20T_o1 (dsDNA)
DNA 1: GCTCGAGTAGGTTACGGGGTCATTCAGGGATGAAGAGCGATTGACAGCGTAGAATGAAGG
DNA 2: CCTTCATTCTACGCTGTCAATCGCTCTTCATCCCTGAATGACCCCGTAACCTACTCGAGC
B7: NRC3_random_hg19_138_o1 (dsDNA)
DNA 1: GCTAGGTTCTCAGAGTAAGAAGTCCATGTTGGTTAGGCGATTGACAGCGTAGAATGAAGG
DNA 2: CCTTCATTCTACGCTGTCAATCGCCTAACCAACATGGACTTCTTACTCTGAGAACCTAGC
B8: NRC3_wobSeed133_DR5_G26C_o1 (dsDNA)
DNA 1: GCCGTCCAAGGTCAATGCTAGGTCACTGAAAGCATTGCGATTGACAGCGTAGAATGAAGG
DNA 2: CCTTCATTCTACGCTGTCAATCGCAATGCTTTCAGTGACCTAGCATTGACCTTGGACGGC
B9: NRC3_wobSeed133_DR5_T19G_o1 (dsDNA)
DNA 1: B8 DNA 1 with T19G, C26G
DNA 2: B8 DNA 2 with G35C, A42C
B10: NRC3_random_hg19_192_o1 (dsDNA)
DNA 1: GCGCAGGAAGCCCTCCTCCAGCTTACAGTGGAACTCGCGATTGACAGCGTAGAATGAAGG
DNA 2: CCTTCATTCTACGCTGTCAATCGCGAGTTCCACTGTAAGCTGGAGGAGGGCTTCCTGCGC
B11: NRC3_random_hg19_233_o1 (dsDNA)
DNA 1: GCTACAAAGTACTGGGATCCTCCCAACAGCCTGCAAGCGATTGACAGCGTAGAATGAAGG
DNA 2: CCTTCATTCTACGCTGTCAATCGCTTGCAGGCTGTTGGGAGGATCCCAGTACTTTGTAGC
B12: NRC3_random_hg19_156_o1 (dsDNA)
DNA 1: GCGCCACCAGGCCTGCCTTACAAGAGCTCCTGAAGAGCGATTGACAGCGTAGAATGAAGG
DNA 2: CCTTCATTCTACGCTGTCAATCGCTCTTCAGGAGCTCTTGTAAGGCAGGCCTGGTGGCGC
B13: NRC3_random_hg19_402_o1 (dsDNA)
DNA 1: GCTGAGGTGCTTCAGAGATGTCCACTCCTGCTGGCTGCGATTGACAGCGTAGAATGAAGG
DNA 2: CCTTCATTCTACGCTGTCAATCGCAGCCAGCAGGAGTGGACATCTCTGAAGCACCTCAGC
B14: NRC3_random_hg19_379_o1 (dsDNA)
DNA 1: GCAGGCTGGCAGATGGTTCAACAGGTGAGTAAAGCAGCGATTGACAGCGTAGAATGAAGG
DNA 2: CCTTCATTCTACGCTGTCAATCGCTGCTTTACTCACCTGTTGAACCATCTGCCAGCCTGC
B15: NRC3_wobSeed141_DR5_A24C_o1 (dsDNA)
DNA 1: GCAGTCAAAGTTCAGGACGAGGTCACGTAAAGCACGGCGATTGACAGCGTAGAATGAAGG
DNA 2: CCTTCATTCTACGCTGTCAATCGCCGTGCTTTACGTGACCTCGTCCTGAACTTTGACTGC
B16: NRC3_wobSeed100_DR4_C12T_o1 (dsDNA)
DNA 1: GCCCTACTGGGTCACGAAAGGTCATTGATTCAGTGAGCGATTGACAGCGTAGAATGAAGG
DNA 2: CCTTCATTCTACGCTGTCAATCGCTCACTGAATCAATGACCTTTCGTGACCCAGTAGGGC
B17: NRC3_random_hg19_257_o1 (dsDNA)
DNA 1: GCACACTGACAATAGCATACACCTTTCCAGAATGCGGCGATTGACAGCGTAGAATGAAGG
DNA 2: CCTTCATTCTACGCTGTCAATCGCCGCATTCTGGAAAGGTGTATGCTATTGTCAGTGTGC
B18: NRC3_wobSeed111_DR4_T8G_o1 (dsDNA)
DNA 1: GCCGAACGAGGTCAGAACAGGACAGTGAAGGATGATGCGATTGACAGCGTAGAATGAAGG
DNA 2: CCTTCATTCTACGCTGTCAATCGCATCATCCTTCACTGTCCTGTTCTGACCTCGTTCGGC
B19: NRC3_wobSeed73_DR3_T8C_o1 (dsDNA)
DNA 1: GCCAAACCAGGTCACAGAGGTCAAAGTCCGTGCGTAGCGATTGACAGCGTAGAATGAAGG
DNA 2: CCTTCATTCTACGCTGTCAATCGCTACGCACGGACTTTGACCTCTGTGACCTGGTTTGGC

Target: RXRa (Homo sapiens, UniProt P19793)
Sequence (P19793 whole entry): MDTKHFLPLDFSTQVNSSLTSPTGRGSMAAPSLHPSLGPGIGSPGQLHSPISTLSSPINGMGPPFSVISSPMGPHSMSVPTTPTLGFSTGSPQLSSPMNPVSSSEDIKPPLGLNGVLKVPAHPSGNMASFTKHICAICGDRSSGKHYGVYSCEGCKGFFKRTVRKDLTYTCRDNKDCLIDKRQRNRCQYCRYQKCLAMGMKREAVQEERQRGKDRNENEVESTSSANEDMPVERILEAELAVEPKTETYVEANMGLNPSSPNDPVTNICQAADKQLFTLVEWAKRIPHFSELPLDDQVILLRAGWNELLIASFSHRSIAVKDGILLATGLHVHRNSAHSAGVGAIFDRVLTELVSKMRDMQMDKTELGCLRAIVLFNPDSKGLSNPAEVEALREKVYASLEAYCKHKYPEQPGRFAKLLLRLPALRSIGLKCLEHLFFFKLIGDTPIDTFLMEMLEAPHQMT
Experiment: no ligand; PBM; 180 nM; PBS pH 7.4, 2% milk, 0.02% Triton X-100, 1 mM DTT, BSA, 0.4 mg/ml salmon testes DNA
Conditions: tags: His cleaved; chain copies: 2; label: surface-attached array probe

Row | Binder | binding signal
1 | B1 | -0.49 PBM z-score against 500 random probes
2 | B2 | -1.01 PBM z-score against 500 random probes

Target: THRa:RXRa (Homo sapiens, UniProt P10827;P19793 full;full)
Sequence (P10827 other isoform, or with tags, fused parts or gaps, chain 1 of 2): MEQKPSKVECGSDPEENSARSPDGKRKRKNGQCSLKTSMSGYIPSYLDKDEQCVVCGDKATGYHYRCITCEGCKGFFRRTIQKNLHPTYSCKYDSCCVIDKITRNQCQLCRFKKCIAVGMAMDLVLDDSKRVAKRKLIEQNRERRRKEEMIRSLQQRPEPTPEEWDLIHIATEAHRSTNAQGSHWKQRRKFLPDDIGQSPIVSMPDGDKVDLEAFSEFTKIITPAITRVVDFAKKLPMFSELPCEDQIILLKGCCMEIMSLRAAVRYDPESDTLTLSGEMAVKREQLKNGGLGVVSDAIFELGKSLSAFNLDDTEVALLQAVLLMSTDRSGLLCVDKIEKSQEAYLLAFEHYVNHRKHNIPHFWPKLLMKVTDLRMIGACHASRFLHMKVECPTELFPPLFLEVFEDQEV
Sequence (P19793 whole entry, chain 2 of 2): as the sequence (P19793 whole entry) above
Experiment: no ligand; PBM; 90 nM : 90 nM RXRa; PBS pH 7.4, 2% milk, 0.02% Triton X-100, 1 mM DTT, BSA, 0.4 mg/ml salmon testes DNA
Conditions: tags: His kept;His cleaved; copies: 1;1; label: surface-attached array probe

Row | Binder | binding signal
3 | B3 | -0.34 PBM z-score against 500 random probes
4 | B4 | 4.89 PBM z-score against 500 random probes
5 | B5 | -0.07 PBM z-score against 500 random probes
6 | B6 | 4.85 PBM z-score against 500 random probes
7 | B7 | 0.16 PBM z-score against 500 random probes
8 | B8 | 4.78 PBM z-score against 500 random probes
9 | B9 | 5.07 PBM z-score against 500 random probes
10 | B1 | -0.43 PBM z-score against 500 random probes
11 | B10 | -0.77 PBM z-score against 500 random probes
12 | B11 | -0.3 PBM z-score against 500 random probes
13 | B2 | -0.49 PBM z-score against 500 random probes
14 | B12 | -0.26 PBM z-score against 500 random probes
15 | B13 | -0.6 PBM z-score against 500 random probes
16 | B14 | -0.17 PBM z-score against 500 random probes
17 | B15 | 5.13 PBM z-score against 500 random probes
18 | B16 | 5.47 PBM z-score against 500 random probes
19 | B17 | 0.05 PBM z-score against 500 random probes
20 | B18 | 4.78 PBM z-score against 500 random probes
21 | B19 | 5.06 PBM z-score against 500 random probes

Target: PPARg:RXRa (Homo sapiens, UniProt P37231;P19793 full;full)
Sequence (P37231 29-505, chain 1 of 2): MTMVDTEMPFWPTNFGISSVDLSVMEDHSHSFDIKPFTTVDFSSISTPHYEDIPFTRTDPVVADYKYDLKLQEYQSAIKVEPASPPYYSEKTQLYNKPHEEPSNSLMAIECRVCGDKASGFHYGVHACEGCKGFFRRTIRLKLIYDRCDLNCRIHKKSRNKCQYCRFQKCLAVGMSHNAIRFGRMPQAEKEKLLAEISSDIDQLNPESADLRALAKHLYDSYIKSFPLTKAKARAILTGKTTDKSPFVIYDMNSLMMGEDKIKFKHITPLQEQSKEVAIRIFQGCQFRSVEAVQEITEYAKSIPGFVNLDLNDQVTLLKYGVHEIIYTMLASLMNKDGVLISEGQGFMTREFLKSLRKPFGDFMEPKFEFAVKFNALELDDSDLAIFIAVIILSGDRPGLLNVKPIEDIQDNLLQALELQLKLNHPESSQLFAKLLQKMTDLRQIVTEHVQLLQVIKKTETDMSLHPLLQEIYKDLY
Sequence (P19793 whole entry, chain 2 of 2): as the sequence (P19793 whole entry) above
Experiment: no ligand; PBM; 180 nM : 90 nM RXRa; PBS pH 7.4, 2% milk, 0.02% Triton X-100, 1 mM DTT, BSA, 0.4 mg/ml salmon testes DNA
Conditions: tags: His kept;His cleaved; copies: 1;1; label: surface-attached array probe

Row | Binder | binding signal
22 | B11 | 0.13 PBM z-score against 500 random probes
23 | B2 | -0.31 PBM z-score against 500 random probes
24 | B13 | -0.45 PBM z-score against 500 random probes
25 | B14 | -0.07 PBM z-score against 500 random probes

Target: RARb:RXRa (Homo sapiens, UniProt P10826;P19793 full;full)
Experiment: no ligand; PBM; 270 nM : 90 nM RXRa; PBS pH 7.4, 2% milk, 0.02% Triton X-100, 1 mM DTT, BSA, 0.4 mg/ml salmon testes DNA
Conditions: tags: His kept;His cleaved; copies: 1;1; label: surface-attached array probe
Method in brief: (§1)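 On custom Agilent 4×180K arrays, double-stranded probes with 34-nt variable regions carried direct-repeat seeds, single-nucleotide variants, half-site ablations or random human genomic background. Ligand-free nuclear receptor dimers were applied for 1 h, and binding was read with antibodies against each partner (one per run). Binding z-scores come from regression-normalized fluorescence, with the random background probes as reference.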

Row | Binder | binding signal
26 | B15 | 5.48 PBM z-score against 500 random probes
27 | B16 | 5.53 PBM z-score against 500 random probes

Target: VDR:RXRa (Homo sapiens, UniProt P11473;P19793 full;full)
Sequence (P11473 whole entry, chain 1 of 2): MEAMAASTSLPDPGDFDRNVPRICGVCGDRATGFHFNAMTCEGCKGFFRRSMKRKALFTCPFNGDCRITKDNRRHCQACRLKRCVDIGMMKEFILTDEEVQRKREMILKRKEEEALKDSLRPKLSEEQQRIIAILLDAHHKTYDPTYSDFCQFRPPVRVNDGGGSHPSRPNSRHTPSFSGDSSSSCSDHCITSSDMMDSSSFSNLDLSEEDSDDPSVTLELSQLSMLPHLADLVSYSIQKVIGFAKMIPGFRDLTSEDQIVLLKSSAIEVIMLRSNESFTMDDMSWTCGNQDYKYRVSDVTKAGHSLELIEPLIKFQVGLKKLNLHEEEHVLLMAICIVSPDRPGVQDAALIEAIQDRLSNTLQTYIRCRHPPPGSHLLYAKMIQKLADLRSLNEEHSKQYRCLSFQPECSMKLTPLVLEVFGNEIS
Sequence (P19793 whole entry, chain 2 of 2): as the sequence (P19793 whole entry) above
Experiment: as above
Conditions: tags: His kept;His cleaved; copies: 1;1; label: surface-attached array probe
Method in brief: as §1

Row | Binder | binding signal
28 | B15 | 6.63 PBM z-score against 500 random probes
29 | B19 | 8.47 PBM z-score against 500 random probes

Target: LXRa:RXRa (Homo sapiens, UniProt Q13133;P19793 full;full)
Experiment: as above
Conditions: tags: His kept;His cleaved; copies: 1;1; label: surface-attached array probe
Method in brief: as §1

Row | Binder | binding signal
30 | B14 | -0.53 PBM z-score against 500 random probes
31 | B16 | 8.11 PBM z-score against 500 random probes

Target: PPARa:RXRa (Homo sapiens, UniProt Q07869;P19793 full;full)
Sequence (Q07869 whole entry, chain 1 of 2): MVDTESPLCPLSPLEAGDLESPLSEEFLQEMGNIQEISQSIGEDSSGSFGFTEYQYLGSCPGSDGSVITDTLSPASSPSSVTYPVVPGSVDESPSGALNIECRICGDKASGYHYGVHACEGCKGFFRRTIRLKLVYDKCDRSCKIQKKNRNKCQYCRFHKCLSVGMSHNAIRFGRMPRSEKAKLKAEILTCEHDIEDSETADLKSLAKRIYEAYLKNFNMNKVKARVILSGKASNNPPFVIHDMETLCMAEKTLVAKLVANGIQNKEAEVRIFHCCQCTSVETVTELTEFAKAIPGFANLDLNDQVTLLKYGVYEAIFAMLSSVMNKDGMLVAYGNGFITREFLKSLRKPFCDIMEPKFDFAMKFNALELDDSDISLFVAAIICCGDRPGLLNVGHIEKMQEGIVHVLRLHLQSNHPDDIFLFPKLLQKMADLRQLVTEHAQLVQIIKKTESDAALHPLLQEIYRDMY
Sequence (P19793 whole entry, chain 2 of 2): as the sequence (P19793 whole entry) above
Experiment: as above
Conditions: tags: GST kept;His cleaved; copies: 1;1; label: surface-attached array probe
Method in brief: as §1

Row | Binder | binding signal
32 | B1 | -0.57 PBM z-score against 500 random probes
33 | B13 | -0.4 PBM z-score against 500 random probes

Target: LXRb:RXRa (Homo sapiens, UniProt P55055;P19793 full;full)
Sequence (P55055 whole entry, chain 1 of 2): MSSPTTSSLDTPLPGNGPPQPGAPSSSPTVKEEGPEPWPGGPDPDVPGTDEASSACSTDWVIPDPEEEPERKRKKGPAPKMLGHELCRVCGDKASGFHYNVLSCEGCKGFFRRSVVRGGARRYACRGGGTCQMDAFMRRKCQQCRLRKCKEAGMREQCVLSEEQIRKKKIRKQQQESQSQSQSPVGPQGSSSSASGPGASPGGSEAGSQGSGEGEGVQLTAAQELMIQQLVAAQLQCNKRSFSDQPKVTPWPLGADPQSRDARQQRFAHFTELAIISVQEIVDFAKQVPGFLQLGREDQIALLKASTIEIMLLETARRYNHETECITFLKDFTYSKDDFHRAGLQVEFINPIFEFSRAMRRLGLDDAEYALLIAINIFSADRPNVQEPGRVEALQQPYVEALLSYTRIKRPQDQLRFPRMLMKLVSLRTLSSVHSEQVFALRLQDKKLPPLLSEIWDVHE
Sequence (P19793 whole entry, chain 2 of 2): as the sequence (P19793 whole entry) above
Experiment: as above
Conditions: tags: His kept;His cleaved; copies: 1;1; label: surface-attached array probe
Method in brief: as §1

Row | Binder | binding signal
34 | B5 | -0.28 PBM z-score against 500 random probes
35 | B7 | 0.28 PBM z-score against 500 random probes
36 | B1 | -0.18 PBM z-score against 500 random probes
37 | B10 | -1.14 PBM z-score against 500 random probes
38 | B16 | 6.66 PBM z-score against 500 random probes
39 | B19 | 6.76 PBM z-score against 500 random probes

Target: FXR:RXRa (Homo sapiens, UniProt Q96RI1;P19793 full;full)
Sequence (Q96RI1 whole entry, chain 1 of 2): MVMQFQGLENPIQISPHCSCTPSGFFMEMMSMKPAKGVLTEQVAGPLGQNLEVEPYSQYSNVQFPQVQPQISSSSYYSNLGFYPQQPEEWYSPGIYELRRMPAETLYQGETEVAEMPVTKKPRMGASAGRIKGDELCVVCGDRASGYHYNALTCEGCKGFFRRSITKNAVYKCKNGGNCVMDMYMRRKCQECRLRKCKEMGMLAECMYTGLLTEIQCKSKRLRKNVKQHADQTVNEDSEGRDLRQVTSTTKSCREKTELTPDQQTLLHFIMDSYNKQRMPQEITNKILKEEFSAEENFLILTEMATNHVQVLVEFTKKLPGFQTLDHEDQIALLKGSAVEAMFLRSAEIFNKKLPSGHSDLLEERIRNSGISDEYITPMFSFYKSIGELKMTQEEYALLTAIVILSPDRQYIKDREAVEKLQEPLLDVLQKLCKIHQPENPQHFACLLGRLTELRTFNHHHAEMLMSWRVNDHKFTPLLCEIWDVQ
Sequence (P19793 whole entry, chain 2 of 2): as the sequence (P19793 whole entry) above
Experiment: as above
Conditions: tags: His kept;His cleaved; copies: 1;1; label: surface-attached array probe
Method in brief: as §1

Row | Binder | binding signal
40 | B7 | 0.34 PBM z-score against 500 random probes
41 | B13 | -0.38 PBM z-score against 500 random probes
42 | B19 | 8 PBM z-score against 500 random probes

Target: PXR:RXRa (Homo sapiens, UniProt O75469;P19793 full;full)
Sequence (O75469 whole entry, chain 1 of 2): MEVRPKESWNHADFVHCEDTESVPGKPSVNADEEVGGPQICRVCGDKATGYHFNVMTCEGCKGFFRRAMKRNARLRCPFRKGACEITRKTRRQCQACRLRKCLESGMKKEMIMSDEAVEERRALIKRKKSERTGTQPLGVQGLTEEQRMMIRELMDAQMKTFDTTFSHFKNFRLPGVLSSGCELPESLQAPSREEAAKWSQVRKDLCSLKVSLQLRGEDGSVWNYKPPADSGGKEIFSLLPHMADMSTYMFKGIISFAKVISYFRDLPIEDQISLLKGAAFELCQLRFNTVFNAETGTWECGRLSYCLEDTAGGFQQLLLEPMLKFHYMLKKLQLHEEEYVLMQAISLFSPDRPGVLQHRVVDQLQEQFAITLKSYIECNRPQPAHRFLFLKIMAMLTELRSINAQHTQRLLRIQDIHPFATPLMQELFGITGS
Sequence (P19793 whole entry, chain 2 of 2): as the sequence (P19793 whole entry) above
Experiment: as above
Conditions: tags: His kept;His cleaved; copies: 1;1; label: surface-attached array probe
Method in brief: as §1

Row | Binder | binding signal
43 | B6 | 6.49 PBM z-score against 500 random probes
44 | B9 | 6.42 PBM z-score against 500 random probes
45 | B11 | -0.22 PBM z-score against 500 random probes
46 | B2 | -0.88 PBM z-score against 500 random probes
47 | B13 | -0.8 PBM z-score against 500 random probes
48 | B15 | 6.95 PBM z-score against 500 random probes
49 | B16 | 7.22 PBM z-score against 500 random probes
50 | B17 | 0.17 PBM z-score against 500 random probes

Target: RARa:RXRa (Homo sapiens, UniProt P10276;P19793 full;full)
Sequence (P10276 whole entry, chain 1 of 2): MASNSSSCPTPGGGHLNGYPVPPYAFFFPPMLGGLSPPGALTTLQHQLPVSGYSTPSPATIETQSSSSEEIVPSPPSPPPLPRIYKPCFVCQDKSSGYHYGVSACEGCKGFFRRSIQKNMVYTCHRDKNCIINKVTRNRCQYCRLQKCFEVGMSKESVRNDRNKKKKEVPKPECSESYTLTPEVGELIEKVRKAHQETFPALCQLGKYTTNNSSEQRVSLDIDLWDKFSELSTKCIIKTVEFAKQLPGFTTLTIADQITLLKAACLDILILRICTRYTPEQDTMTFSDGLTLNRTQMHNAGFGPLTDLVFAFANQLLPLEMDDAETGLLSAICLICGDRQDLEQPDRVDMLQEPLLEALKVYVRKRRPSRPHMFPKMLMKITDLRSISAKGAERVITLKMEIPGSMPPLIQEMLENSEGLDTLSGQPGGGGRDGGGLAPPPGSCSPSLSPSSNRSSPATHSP
Sequence (P19793 whole entry, chain 2 of 2): as the sequence (P19793 whole entry) above
Experiment: as above
Conditions: tags: His kept;His cleaved; copies: 1;1; label: surface-attached array probe
Method in brief: as §1

Row | Binder | binding signal
51 | B3 | -0.13 PBM z-score against 500 random probes
52 | B4 | 4.46 PBM z-score against 500 random probes
53 | B5 | -0.53 PBM z-score against 500 random probes
54 | B6 | 7.48 PBM z-score against 500 random probes
55 | B7 | -0.25 PBM z-score against 500 random probes
56 | B8 | 7.16 PBM z-score against 500 random probes
57 | B9 | 7.03 PBM z-score against 500 random probes
58 | B1 | -0.36 PBM z-score against 500 random probes
59 | B10 | -1.09 PBM z-score against 500 random probes
60 | B12 | -0.57 PBM z-score against 500 random probes
61 | B15 | 7.52 PBM z-score against 500 random probes
62 | B16 | 7.1 PBM z-score against 500 random probes
63 | B17 | 0.41 PBM z-score against 500 random probes
64 | B18 | 3.37 PBM z-score against 500 random probes
65 | B19 | 8.19 PBM z-score against 500 random probes

Target: RARg:RXRa (Homo sapiens, UniProt P13631;P19793 full;full)
Sequence (P13631 whole entry, chain 1 of 2): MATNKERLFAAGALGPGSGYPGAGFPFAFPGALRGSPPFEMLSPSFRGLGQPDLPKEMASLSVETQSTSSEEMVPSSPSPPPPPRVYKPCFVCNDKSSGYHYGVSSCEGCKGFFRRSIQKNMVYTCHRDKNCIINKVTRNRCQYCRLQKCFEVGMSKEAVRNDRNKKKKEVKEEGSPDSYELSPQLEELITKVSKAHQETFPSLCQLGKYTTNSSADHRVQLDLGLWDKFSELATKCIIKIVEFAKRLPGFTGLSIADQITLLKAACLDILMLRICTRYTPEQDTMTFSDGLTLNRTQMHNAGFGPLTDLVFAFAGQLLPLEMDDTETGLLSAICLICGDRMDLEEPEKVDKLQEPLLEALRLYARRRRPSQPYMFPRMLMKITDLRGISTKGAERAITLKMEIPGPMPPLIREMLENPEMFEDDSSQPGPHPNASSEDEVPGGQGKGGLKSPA
Sequence (P19793 whole entry, chain 2 of 2): as the sequence (P19793 whole entry) above
Experiment: as above
Conditions: tags: His kept;His cleaved; copies: 1;1; label: surface-attached array probe
Method in brief: as §1

Row | Binder | binding signal
66 | B9 | 8.33 PBM z-score against 500 random probes
67 | B15 | 8.19 PBM z-score against 500 random probes
